In PMC11880808:

Legend:
[1] = molecular target: cynomolgus monkey IL-2 receptor alpha (IL-2Rα) (cynomolgus monkey); assay: BLI; Octet; who was immobilised, temperature and buffer are not told
[2] = molecular target: cynomolgus monkey IL-2 receptor beta and gamma (IL-2Rβγ) complex (cynomolgus monkey) (UniProt Q38J85); assay: as above

- Kd [1]: 19.9 nM
- Kd [2]: 1.29 nM
Substance: recombinant human IL-2 (from UniProt P60568 21-153) (ligand)
